Assay results taken from patent US12564617B2, “Methods for modulating macrophage activity” (Riptide Bioscience, Inc., priority 2019, dated 2026).

Target: T1, recombinant mouse CD206 full length protein (Mus musculus, UniProt Q61830)
T1 construct: honeybee melittin signal peptide (N); host or cells: Expi293E cells
T1 sequence (Q61830 23-1387): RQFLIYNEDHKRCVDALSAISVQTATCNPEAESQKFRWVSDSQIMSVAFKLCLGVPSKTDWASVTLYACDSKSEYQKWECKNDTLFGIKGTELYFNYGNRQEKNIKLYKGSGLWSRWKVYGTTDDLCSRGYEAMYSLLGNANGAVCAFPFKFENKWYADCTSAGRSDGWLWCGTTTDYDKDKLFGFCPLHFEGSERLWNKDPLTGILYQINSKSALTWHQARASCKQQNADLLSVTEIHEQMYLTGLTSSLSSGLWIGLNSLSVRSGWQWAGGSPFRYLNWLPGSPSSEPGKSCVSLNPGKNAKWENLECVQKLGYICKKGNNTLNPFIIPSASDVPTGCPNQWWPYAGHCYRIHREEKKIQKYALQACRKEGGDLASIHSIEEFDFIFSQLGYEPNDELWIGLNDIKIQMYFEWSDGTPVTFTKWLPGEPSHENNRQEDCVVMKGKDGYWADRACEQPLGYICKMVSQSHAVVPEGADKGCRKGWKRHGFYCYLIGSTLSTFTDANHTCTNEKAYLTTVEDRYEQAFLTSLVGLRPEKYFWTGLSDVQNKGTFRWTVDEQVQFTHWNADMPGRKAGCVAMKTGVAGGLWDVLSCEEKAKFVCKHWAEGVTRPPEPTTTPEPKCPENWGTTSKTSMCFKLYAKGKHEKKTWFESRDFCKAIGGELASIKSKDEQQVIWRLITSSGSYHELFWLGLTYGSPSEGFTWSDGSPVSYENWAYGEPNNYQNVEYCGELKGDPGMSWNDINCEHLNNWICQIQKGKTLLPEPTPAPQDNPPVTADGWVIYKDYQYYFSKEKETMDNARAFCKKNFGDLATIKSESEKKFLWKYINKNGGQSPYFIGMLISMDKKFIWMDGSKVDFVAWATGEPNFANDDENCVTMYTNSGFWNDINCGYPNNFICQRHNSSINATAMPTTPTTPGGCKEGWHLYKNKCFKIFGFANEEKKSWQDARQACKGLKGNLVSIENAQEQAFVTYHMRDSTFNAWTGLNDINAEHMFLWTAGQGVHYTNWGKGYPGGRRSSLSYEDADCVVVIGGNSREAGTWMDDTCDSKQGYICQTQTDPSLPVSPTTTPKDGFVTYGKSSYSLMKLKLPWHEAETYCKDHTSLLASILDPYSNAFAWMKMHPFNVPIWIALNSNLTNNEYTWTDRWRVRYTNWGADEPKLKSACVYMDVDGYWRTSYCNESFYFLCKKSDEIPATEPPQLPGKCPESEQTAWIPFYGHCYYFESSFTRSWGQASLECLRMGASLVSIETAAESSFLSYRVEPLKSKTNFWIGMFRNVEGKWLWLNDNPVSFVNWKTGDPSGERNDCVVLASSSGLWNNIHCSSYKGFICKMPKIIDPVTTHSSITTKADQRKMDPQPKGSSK
Test: Negative stain electron microscopy of open vs closed CD206 conformation
Format: biochemical
Settings: negative stain EM
Protocol: A 3 μL aliquot containing ˜0.01 mg/mL of the sample was applied for 20 seconds onto a carbon-coated 200 Cu mesh grid that had been glow discharged at 30 mA for 30 sec, then negatively stained with 0.7% (w/v) uranyl formate for 40 sec. […] Images were acquired with an Eagle 2k×2k CCD camera (http://FEI.com) using a nominal defocus of 1500 nm and the SerialEM software (54). […] Images were acquired with a Ceta 4k×4k CCD camera (http://FEI.com) using a nominal defocus of 1200 nm and the EPU software. For electron microscopy data processing, particles were selected from the micrographs, extracted, and a reference-free 2D class averages were obtained using RELION 2.1.0. Microscale thermophoresis and cellular thermal shift assays.

Row | Sequence | closed vs open conformation of CD206
1 | EKLSAFRNFF [AVP1] | lower ratios of closed-to-open conformations
2 | FFRKSKEKIG [LL37F1, 10mer motif from cathelicidin antimicrobial peptide [Homo sapiens]] | lower ratios of closed-to-open conformations
